Experiment [1] addresses T1, enriched paired helical filament tau protein (ePHF) (human, UniProt P10636 2-758).
T1 construct: Sarkosyl-insoluble filaments isolated from human frontal cortical tissue; aggregated, isoform mix and phosphorylated residues not specified; also called sarkosyl insoluble tau
The experiment in a line: direct ELISA, ePHF coated.
Protocol: (§1) These candidate antibodies were analyzed for binding to ePHF and specificity for ePHF over wild type tau by direct ELISA.
(§2) For direct ePHF and wildtype tau ELISA, plates were first coated with ePHF or wild type tau. Antigen solutions were prepared in PBS and 50 µL were pipetted into each well. Plates were covered and incubated for one hour at 37° C. or overnight at 4° C. Plates were then washed and blocked by addition of 150 µl of blocking buffer to each well and incubated one hour at room temperature. Plates were then washed before addition of serially diluted candidate antibody samples prepared in blocking buffer. Detection of candidate antibody binding was carried out by washing plates and adding a solution of enzyme-labeled secondary antibody in blocking buffer to each well. Secondary antibody binding was detected by addition of substrate and spectrophotometric analysis of resulting reaction product.

In experiment [2] the target is wild type tau (UniProt P10636-8 1-441, limits assumed). The experiment in a line: direct ELISA, wild type tau coated.
Chain of wild type tau (P10636 other isoform, or with tags, fused parts or gaps limits assumed): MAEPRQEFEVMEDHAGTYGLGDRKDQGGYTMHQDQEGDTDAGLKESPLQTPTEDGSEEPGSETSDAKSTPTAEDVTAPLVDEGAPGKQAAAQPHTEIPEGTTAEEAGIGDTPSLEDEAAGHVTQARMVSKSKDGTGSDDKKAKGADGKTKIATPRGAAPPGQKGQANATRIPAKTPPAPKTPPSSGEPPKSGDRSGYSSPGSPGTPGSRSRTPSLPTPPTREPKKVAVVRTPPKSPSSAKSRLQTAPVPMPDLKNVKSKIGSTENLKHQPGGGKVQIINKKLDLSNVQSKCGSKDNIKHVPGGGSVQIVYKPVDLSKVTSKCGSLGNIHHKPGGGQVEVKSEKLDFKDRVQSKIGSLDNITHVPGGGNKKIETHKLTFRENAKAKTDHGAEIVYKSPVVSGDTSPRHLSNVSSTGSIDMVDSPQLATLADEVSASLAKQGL
Protocol: as §1, §2
For experiment [3], the target named is iPHF (UniProt P10636-8 1-441). The experiment in a line: Octet, epitope binning of Example 4.
Protocol: Variable domain nucleic acid sequences from antibodies obtained from immunizations described above were used to prepare recombinant mouse IgG antibodies for iPHF affinity measurement and epitope binding competition analysis. Studies were carried out by Octet (ForteBio, Menlo Park, CA) analysis.
For epitope binding competition analysis, a process also referred to as “epitope binning,” candidate antibodies were analyzed using a sandwich assay format, wherein a first “capture” antibody is attached to the Octet biosensor before antigen and a second antibody are sequentially introduced and biosensor readings are used to determine whether one or both antibodies bind to each antigen. […] PT3, IPN002, or C10.2 antibodies were used as capture antibodies and immobilized on AMC biosensor tips as described above. Biosensor tips were then washed and blocked in 10 µg/ml MOPC. After a further wash, biosensor capture antibodies were associated with iPHF. Candidate antibodies were then analyzed for binding to iPHF. MOPC (non antigen-specific control) and PT3, IPN002, or C10.2 antibodies (in each case matching the biosensor antibody) were used as directly competing controls.
The target of experiment [4] is T1, enriched paired helical filament tau …. The experiment in a line: cell-based or functional assay.
Experiment [5] has the same target. The experiment in a line: follow up analysis, method not stated.

Some results are limits rather than exact numbers.

T1 sequence (P10636 other isoform, or with tags, fused parts or gaps limits assumed): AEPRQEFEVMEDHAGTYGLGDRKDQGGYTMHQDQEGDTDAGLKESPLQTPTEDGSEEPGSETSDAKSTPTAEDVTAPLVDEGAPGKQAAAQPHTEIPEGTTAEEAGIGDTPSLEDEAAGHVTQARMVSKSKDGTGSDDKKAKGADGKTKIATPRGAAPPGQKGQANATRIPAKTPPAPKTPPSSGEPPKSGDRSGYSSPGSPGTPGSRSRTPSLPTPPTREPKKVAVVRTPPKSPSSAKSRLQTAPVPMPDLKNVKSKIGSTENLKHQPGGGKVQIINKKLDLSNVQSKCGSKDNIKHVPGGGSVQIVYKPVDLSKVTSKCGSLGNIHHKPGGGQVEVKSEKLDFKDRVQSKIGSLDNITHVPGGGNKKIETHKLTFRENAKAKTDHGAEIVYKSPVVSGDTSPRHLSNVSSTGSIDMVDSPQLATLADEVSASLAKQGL

B1: V0035 (antibody, mouse IgG1, V domains shown)
VH: EAQLQQSGAELVRPGSSVKMSCKTSGYTFTSYGINWVKQRPGQGLEWIGYIYIRNGNTAYNEKFKGKATVTSDTSSSTVYMQLSSLTSEDSAIYFCAGTGTSFTYWGQGTLVTVSA
VL: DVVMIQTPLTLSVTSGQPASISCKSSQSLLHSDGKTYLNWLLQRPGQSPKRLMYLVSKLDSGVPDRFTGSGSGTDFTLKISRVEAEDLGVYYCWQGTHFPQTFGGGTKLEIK
On to B1, for which the EC50 in experiment [1] came to 0.315 nM.

B2: V0034 (antibody, mouse IgG1, V domains shown)
VH: EVQLQQSGAELVRPGSSVKMSCKTSGYTFTSYGINWVKQRPGQGLEWVGYIYIRDGNTAYNEKFKGKATVTSDTSSSTVYMQLSSLTSEDSAIYFCAGTGTSFAYWGQGTLVTVSA
VL: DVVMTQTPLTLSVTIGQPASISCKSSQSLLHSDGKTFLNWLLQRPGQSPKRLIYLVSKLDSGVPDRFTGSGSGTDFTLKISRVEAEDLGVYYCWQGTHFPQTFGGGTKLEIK
B2 yielded an EC50 in experiment [1] of 0.351 nM.

B3: V00014 (antibody, mouse IgG1, V domains shown)
VH: QAYLQQSGAELVRPGASVKMSCKASGYTFTSYNMHWVKQTPRQGLEWIGAIYPGNGDTSYNQKFKGKATLTVDKSSSTAYMQLSSLTSEDSAVYFCARGGMDYWGQGTSVTVSS
VL: DVVMTQTPLSLPVSLGDQASISCRSSQSLVHSNGNTYLHWYLQKPGQSPKLLIYKVSNRFSGVPDRFSGSGSGTDFTLKISRVEAEDLGVYFCSQSTHVPYTFGGGTKLEIK
For the molecule B3, the binding result in experiment [2] and in experiment [3] was “no binding” each time.

B4: V0023 (antibody, mouse IgG1, V domains shown)
VH: QVQLQQPGTELVKPGASVKLSCKASGYTFTIFWMHWVKQRPGHGLEWIGKINPNNGGGDYNEKFKSKATLTVDKSSTTAYLQLSSLTSEDSAVYYCARGTGTGAMDYWGQGTSVTVSS
VL: DVVMTQTPLSLPVSLGDHASISCRSSQSLVHSNGITHLYWYLQRPGQTPKLLIYRVSNRFSGVPDRFSGSGSGTDFTLKISSVEAEDLGVYFCFQGTHVPRTFGGGTKLEIE
B4: the “Average IC50 (nM), tau aggregation inhibition, immunodepletion assay with tau RD Biosensor cells” value in experiment [4] turned out to be 16.5 nM. For the same molecule, in experiment [1], the EC50 was 0.11 nM. In experiment [5], the “selectivity for ePHF over wild type tau” value was greater than 100 fold.

B5: V0024 (antibody, mouse IgG1, V domains shown)
VH: QVQLQQPGTELVKPGASVKLSCKASGYTFTRFWMHWVKQRPGQGLEWIGNINPNNGGTDNNERFKSKATLTVDRSSSTAYMQLSSLTSEDSAVYYCARGTGTGAMDYWGQGTSVTVSS
VL: DVVMTQTPLSLPVSLGDQASISCRSSQSLVHSNGNTHLYWYLQKPGQSPKLLIYRVSSRFSGVPDRFSGSGSGTDFTLKISRVEAEDLGVYFCFQGTHVPRTFGGGTKLEIK
For the molecule B5, the “Average IC50 (nM), tau aggregation inhibition, immunodepletion assay with tau RD Biosensor cells” value in experiment [4] is 18.6 nM.

B6: V0025 (antibody, mouse IgG1, V domains shown)
VH: QVQLQQPGTELVKPGASVKLSCKASGFTFTRFWMHWVKQRPGQGLEWIGNINPNNGETNYNEKFKIKAALTVDKSSTTAYMQLSSLTSEDSAVYSCARGTGTGAMDYWGQGTSVTVSS
VL: DVVMTQTPLSLPVSLGDQASISCRSSQSLVHSTGNTYLYWYLQKPGQSPKLLIYRVSTRFSGVPDRFSGSGSGTDFTLKINRVEAEDLGVYFCFQGTHVPRTFGGGTKLEIK
For the molecule B6, the midpoint of the response in experiment [1], the EC50, lay at 0.098 nM.

B7: V0022 (antibody, mouse IgG1, V domains shown)
VH: QVQLQQPGTELVKPGSSVNLSCKASGFTFTRYWMHWVKERPGHGLEWIGNINPNNGGTDFNEKFKNKATLTVHKSSTTVFIQLSSLTSEDSAVYYCARGTGTGAMDYWGQGTSVTVSS
VL: DVVMTQTPLSLPVSLGDQASISCRSSQSLVHNNGITYLYWYLQKPGQSPKLLIYRVSNRFSGVPDRFGGSGSGTDFTLKISRVEAEDLGVYFCFQGTHVPRTFGGGTKLEIK
Take B7: the “Average IC50 (nM), tau aggregation inhibition, immunodepletion assay with tau RD Biosensor cells” value in experiment [4] worked out at 18.2 nM. In experiment [1], this molecule gave a half-maximal effective concentration (EC50) of 0.07 nM. The “selectivity for ePHF over wild type tau” value in experiment [5] was greater than 100 fold.

B8: V00018 (antibody, mouse IgG1, V domains shown)
VH: QVQLQQPGADLVRPGSSVKLSCKASGYTFTRSWMHWVKQRPIEGLEWIGNIDPSDSEAHYNQKFKDKATLTVDKFSNTAYMQLSSLTSEDSAVYYCARWDDFYVAYWGQGTLVTVSA
VL: DIVLTQSPASLAVSLGQRATISCRASKSVSTSGYSYIHWYQQKPGQPPKLLIYLASNLESGVPARFSGSGSGTDFTLNIHPVEEEDAATYYCQHSRELPWTFGGGTKLEIK
In experiment [1], B8 displayed an EC50 of 0.718 nM.

B9: V2004 (antibody, mouse IgG1, V domains shown)
VH: QVQLQQSGAELARPGASVKLSCKSSGYIFSSYWMQWVKQRPGQGLEWIGAIYPGDGDTRYTPKFKGKATLTADKSSSTAYMQLTSLASEDSAVYYCAKGYSQSFDYWGQGTTLTVSS
VL: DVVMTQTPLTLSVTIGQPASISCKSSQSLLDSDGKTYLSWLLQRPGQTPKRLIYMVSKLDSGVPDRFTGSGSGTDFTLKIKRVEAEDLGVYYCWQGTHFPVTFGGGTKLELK
Regarding B9, the binding result in experiment [2] is “no binding”.

(Values after US20230192830A1 (VOYAGER THERAPEUTICS, published 2023).)
